Tested on: MS2 coat protein
Experiment: apparent KD of MS2 coat protein; designed switch direction (-1 OFF switch, 1 ON switch): -1; higher = weaker reporter binding
How it was run: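 For each design, the apparent KD is the median over clusters of curves fitted to normalised cluster fluorescence. Clusters held RNA switches with common flanks, transcribed on Illumina chips by stalled E. coli RNA polymerase. These were titrated with SNAP-549-labelled MS2 coat protein, doubling from 0.7 or 1.5 nM to 3 µM, without input, with 200 uM small-molecule ligand, or with an oligonucleotide input.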

[1] = Eterna round: R95, input ligand: microRNA oligo, concentration not stated
[2] = Eterna round: R95, input ligand: FMN 200 uM
[3] = Eterna round: R95, input ligand: none

Sequence | apparent KD of MS2 coat protein [1] | apparent KD of MS2 coat protein (input ligand: FMN 200 uM) | apparent KD of MS2 coat protein (input ligand: none) | apparent KD of MS2 coat protein [2] | apparent KD of MS2 coat protein [3] | apparent KD of MS2 coat protein (input ligand: microRNA oligo, concentration not stated)
UGCAUGGUAGGAUAUACGGAACAUUAGGGUUUGUUAUGUAGACAUGAGGAUCACCCAUGUAGAAGGGCCGUGCU [JL-ex2-2.14 mat747 mod] (puzzle: Exclusion 2) | 33.8 nM | – | – | – | – | –
UGCCGGGCGUGAUCGGAUGACAUGAGGAUCACCCAUGUGCCAGCACAUAAUACCGCUCGCGGUUUUUUGCUCGUCAU [Eternabot (Original) Solution 12] (Eterna round: R97, puzzle: Sensor, turn-off variant 1) | – | 221 nM | 250 nM | – | – | –
UGCCGUUGAGGAUAUACAUUGAAUUUGAUUCAUGUAAAACUACAUGAGGAUCACCCAUGUAGAAGGCAAUGGCU [Mat - Exclusion 2 - JL Mod - D63] (Eterna round: R97, puzzle: Exclusion 2) | – | 25.7 nM | 21.3 nM | – | – | –
UGCCGUUGAGGAUAUACGUAGAAAUAGAUUCAUGUAAAACUACAUGAGGAUCACCCAUGUAGAAGGCAAUGGCU [Mat - Exclusion 2 - JL Mod - D47] (Eterna round: R97, puzzle: Exclusion 2) | – | 221 nM | 24.4 nM | – | – | –
UGCCUAAGAGGAUAUACAUAGAAAUAGAUUCAUGUAAAACUACAUGAGGAUCACCCAUGUAGAAGGCUUGGGCU [Mat - Exclusion 2 - JL Mod - D54] (Eterna round: R97, puzzle: Exclusion 2) | – | 155 nM | 27.6 nM | – | – | –
UGCCUACAUGAGGAUCACCCAUGUGAGGAUAUCCUGCGAGGAUCAAAAGAUCCUCGUGGGAGAAGGCGCCUGGA [Omei Ex1 B5] (Eterna round: R97, puzzle: Exclusion 1) | – | 19.9 nM | 16.2 nM | – | – | –
UGCCUACGUGUGAGGAUAUCAAGGUUUCCACACUAUGAGAAGGUACAUGAGGAUCACCCAUGUUUAGAUGAGCC [Eternabot (L2) Solution 43] (Eterna round: R97, puzzle: Brourd's mod of Exclusion 4) | – | 74.2 nM | 74.6 nM | – | – | –
UGCGAGUAAGGAUAUUCGCGACCGCCCACAAAGGCGGUCGAGAAGAAGGUACUUGAGGAUCACCCAAGUCCUAA [Anremaqu] (Eterna round: R97, puzzle: Exclusion 4) | – | 98.2 nM | 22 nM | – | – | –
UGCGUUUGAGGAUAUACGUAGAAAUAGAUUCAUGUAAAACUACAUGAGGAUCACCCAUGUAGAAGGCAAGCGCU [Mat - Exclusion 2 - JL Mod - D39] (Eterna round: R97, puzzle: Exclusion 2) | – | 239 nM | 26.4 nM | – | – | –
UGCUGACGAGGAUAUACAUGAGGAUCACCCAUGUUGGUCAAGCGACGAUAGUCGCAAUGUAGAAGGCGUCAGCA [E3/8-A2] (Eterna round: R97, puzzle: Exclusion 3) | – | 239 nM | 405 nM | – | – | –
UGGUAACAUGAGGAUCACCCAUGUCAGGAUAUCAGUAAGAAUAGAUUAGAUUAGAAGAUGAGAAGGGACUAUAU [Excluse me! 5 - Jieux - Exclusion 1] (puzzle: Exclusion 1) | 32 nM | – | – | 27.6 nM | 36.7 nM | –
UGGUCACAUGAGGAUCACCCAUGUCAGGAUAUCUACAUUGAAGCCUCGGCUUCAAUGUAGAGAAGGGACAUAAU [E1/6-B2] (Eterna round: R97, puzzle: Exclusion 1) | – | 121 nM | 265 nM | – | – | –
UGGUCACAUGAGGAUCACCCAUGUCAGGAUAUCUACAUUGAAGCUGCGGCUUCAAUGUAGAGAAGGGACAUAAU [E1/7-B3] (Eterna round: R97, puzzle: Exclusion 1) | – | 314 nM | 272 nM | – | – | –
UGGUCACAUGAGGAUCACCCAUGUCAGGAUAUCUACAUUGAAGCUUCGGCUUCAAUGUAGAGAAGGGAUAUAAU [E1/9-B1] (Eterna round: R97, puzzle: Exclusion 1) | – | 167 nM | 71.4 nM | – | – | –
UGUAACCGAGGAUAUACAUGAGGAUCACCCAUGUAAUGUAGUAUAGUGUAUGUAAGAUGUAGAAGGUGGGAUGU (Eterna round: R97, puzzle: Exclusion 3) | – | 40.2 nM | 45.7 nM | – | – | –
UGUAACCUGGUAAGGAUAUAGUUGCAAGGAGUCAACUAGAAGGUACAUGAGGAUCACCCAUGUCUACGGAUAUC [Eternabot (L2) Solution 91] (Eterna round: R97, puzzle: Brourd's mod of Exclusion 4) | – | 20.6 nM | 17.3 nM | – | – | –
UGUACGAUGCGUGCUGACAUGCGUCGUGCAGCAGGUGAUACAUGAGGAUCACCCAUGUCCUCAUUUGCUCGUCAUGU [Mat - Sensor v3 - Turn-off var 2 - D25] (puzzle: Sensor v3, turn-off variant 2) | 384 nM | – | – | 73.4 nM | 91.3 nM | –

Sequence | apparent KD of MS2 coat protein [1] | apparent KD of MS2 coat protein (input ligand: FMN 200 uM) | apparent KD of MS2 coat protein (input ligand: none) | apparent KD of MS2 coat protein [2] | apparent KD of MS2 coat protein [3] | apparent KD of MS2 coat protein (input ligand: microRNA oligo, concentration not stated)
UGUACGAUGCGUGCUGACAUGCGUCGUGCAGCAGGUGAUACAUGAGGAUCACCCAUGUCCUCAUUUGCUCGUCUAGU [Mat - Sensor v3 - Turn-off var 2 - D24] (puzzle: Sensor v3, turn-off variant 2) | 467 nM | – | – | 72.5 nM | 78.4 nM | –
UGUACGAUGCGUGCUGACAUGCGUCGUGCAGCAGGUGAUACAUGAGGAUCACCCAUGUCCUCAUUUGCUCGUCUUGU [SL-sv3-2.11 JL mod] (puzzle: Sensor v3, turn-off variant 2) | 267 nM | – | – | 82.5 nM | 85.6 nM | –
UGUACGAUGCGUGCUGACAUGCGUCGUGCAGCAGGUGGAACAUGAGGAUCACCCAUGUCCUCAUUUGCUCGUCUUGU [SL-sv3-2.10 JL mod] (puzzle: Sensor v3, turn-off variant 2) | 140 nM | – | – | 54.7 nM | 52.3 nM | –
UGUACUAACACGAGAGUGUUAGUACUAUAAGCUUGUGUUACAUGAGGAUCACCCAUGUCCUCAUAAGCUCGUCUUGA [Mat - Sensor v3 - Turn-off var 2 - D94] (puzzle: Sensor v3, turn-off variant 2) | 285 nM | – | – | 40.4 nM | 34 nM | –
UGUACUAUGCGUGCUGACAUGCGUAGUGCAGCAGGUGUUACAUGAGGAUCACCCAUGUCCUCAUUUGCUCGUCUUAU [SL-sv3-2.07 JL mod] (puzzle: Sensor v3, turn-off variant 2) | 200 nM | – | – | 189 nM | 215 nM | –
UGUAGAGUGGUAGGAUAUCCGUCUGUUUCAGUCGGAGAAGGGCCACAGUCACUGGGUCCUAAUAUCAUGGAGACCUGAUCUACU [pwkr exNG1 F6.14] (Eterna round: R96, puzzle: Exclusion NG 1) | – | 599 nM | 383 nM | – | – | 288 nM
UGUAGUUCAGGAUAUGAUGUUUAAUACAUGAGGAUCACCCAUGUAGAUCCUGAAUUUACAUCAGAAGGGAAUAUUU [JL-ex5-4.57 Brourd mod] (Eterna round: R97, puzzle: Exclusion 5) | – | 17.3 nM | 14.9 nM | – | – | –
UGUAUACAUGAGGAUCACCCAUGUAAGGAUAUACAUCAGAUCGACACCGGACUGGCCCGUAGAAGGUGCGUGGA [Eternabot (L2) Solution 67] (Eterna round: R97, puzzle: Exclusion 1) | – | 24.9 nM | 24 nM | – | – | –
UGUAUCCGAGGAUAUCGCUUGAGGGACAUGAGGAUCACCCAUGUGAAGAAAAGCGUCCCGCGAGAAGGCGGACCCA [EX5 B.24] (Eterna round: R97, puzzle: Exclusion 5) | – | 189 nM | 66.4 nM | – | – | –
UGUCAGUCAGGAUAUGCAUACGUAGACAUGAGGAUCACCCAUGUGACGUGGGCCUGGUGUGUAGAAGGGACGAACA [EX5 #80] (Eterna round: R97, puzzle: Exclusion 5) | – | 48.5 nM | 19.5 nM | – | – | –
UGUGCAACAGGAUAUAUGUGGCGUCCGUGAGGACGAAGGUUACAUGAGGAUCACCCAUGUAGAAGGGUUGUACU [Mat - Exclusion 2 - JL Mod - D24] (Eterna round: R97, puzzle: Exclusion 2) | – | 218 nM | 68.5 nM | – | – | –
UGUGCGUAUGUGAGGAUAUGCUGGUCCUUGGAUCGGCAGAAGGCACAUGAGGAUCACCCAUGUGGUGUCGUACA [salish99_Bmod_ex4_086] (puzzle: Brourd's mod of Exclusion 4) | 204 nM | – | – | – | – | –
UGUGCGUAUGUGAGGAUAUGCUGGUCCUUGGAUCGGCAGAAGGCACAUGAGGAUCACCCAUGUGGUGUCGUUCU [salish99_Bmod_ex4_096] (puzzle: Brourd's mod of Exclusion 4) | 188 nM | – | – | – | – | –
UGUGCGUCAGGAUAUUCUAUUUAUUACAUGAGGAUCACCCAUGUGAAUGUACAAGGGUGUGAAGAAGGGACUUGUG [LRO-Excl5-03-mod A17d by Omei] (Eterna round: R97, puzzle: Exclusion 5) | – | 808 nM | 1090 nM | – | – | –
UGUGUGAGACAGGAUAUGCCAGAUAUAUUACUGGUAGAAGGGUCUACAUGAGGAUCACCCAUGUGGCCGGCCGG [Ex6 #85] (Eterna round: R97, puzzle: Exclusion 6) | – | 65.3 nM | 28.5 nM | – | – | –
UGUGUGUGACAGGAUAUGCAGGUAAUGAGACGGGUAGAAGGGUCUACAUGAGGAUCACCCAUGUGGCCGGUUGG [Ex6 #62] (Eterna round: R97, puzzle: Exclusion 6) | – | 17.7 nM | 16.4 nM | – | – | –
UGUUGGCGAGGAUAUACAUGAGGAUCACCCAUGUGAGAGAAAAAAGUGAGGAAGAAAAGUAGAAGGCGCUGACG [salish99_ex3_r3_043] (puzzle: Exclusion 3) | 40 nM | – | – | 209 nM | 45.4 nM | –
